The supplement of paper PMC7125110
± gives the standard error. This sample holds only a part of the variants without activity.

B1: glmS ribozyme (parent)
chain: AUAAAAGCGCCAGAACUACAGAAAUGUAGUUGACGAGGAGGAGGUUUAUCGAAUUUUCGGCGGAUGCCUCCAAA

Variants of: B1
Assay: self-cleavage kobs at 2500 uM GlcN6P; higher = faster cleavage; RNA array
Details: with glucosamine-6-phosphate
How it was run: (§1)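 Over ~14 h at 37 °C, tiles were imaged as glucosamine-6-phosphate (40 μM to 10 mM) in HEPES/KCl/Mg(OAc)2 buffer flowed across sequenced MiSeq chips. The chips carried barcoded ribozyme variants transcribed in situ by E. coli RNA polymerase and tracked with a hybridised Cy3 probe. After normalisation to baseline and to non-cleaving reference variants, one- or two-exponential decay fits of per-tile medians gave kobs. kcat and KM followed from weighted Michaelis–Menten fits across concentrations.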

| Variant | self-cleavage kobs at 2500 uM GlcN6P [s⁻¹] |
| --- | --- |
| C34A G35A C67G C68A C71A | 0.000155 ± 6.4e-05 |
| G29U C34U U55G C67U | < 1e-05 |
| G32U G35C U46G | < 1e-05 |
| G29U U47G C50G G63C | 0.000136 ± 5.4e-05 |
| C16G U31A C34A | < 1e-05 |
| G32A C34G C71U | < 1e-05 |
| U31G G38U A42U C67U | < 1e-05 |
| G32U A64G G66A | 0.000236 ± 5.9e-05 |
| A15U G32A A39U C71U | 0.000236 ± 0.00011 |
| G32C A42G G59U | < 1e-05 |
| U30A G41U U55G G59A U69A | < 1e-05 |
| C16G U30C G32C C58G | 5.09e-05 ± 2.2e-05 |
| C34U C58U U65A | < 1e-05 |
| A15G G29U A39G C67U | 0.000169 ± 5.3e-05 |
| C34A G38U C50G | 9.01e-05 ± 3e-05 |
| A15G G32A G35U A52C | < 1e-05 |
| A15G G44U U54C | 0.00016 ± 3.1e-05 |
| C16U U30C G35C U45A U55G G59U | < 1e-05 |
| G35A G38C C58U | < 1e-05 |
| G29A G35U G41A | < 1e-05 |
| G32U U57A C61A | < 1e-05 |
| A15U G40A A52C G66U | < 1e-05 |
| G29C A42U U47A | < 1e-05 |
| A15G G29U U47G U54A | 0.000248 ± 6.2e-05 |

| Variant | self-cleavage kobs at 2500 uM GlcN6P [s⁻¹] |
| --- | --- |
| A15G U56G C58U | 3.75e-05 ± 1.4e-05 |
| C16U G37U A42G | < 1e-05 |
| U31C C34U U69C | < 1e-05 |
| G32C A53C U65C | < 1e-05 |
| C34A U49G | < 1e-05 |
| G32A A39U U69A | < 1e-05 |
| U30A A33U C34A A36C G37C U57G | < 1e-05 |
| A15C U49G C58G | < 1e-05 |
| G35C G44U A52G U54A C67U | < 1e-05 |
| G32C G37A A42C A53C | < 1e-05 |
| U31G G32C G66A | 0.000109 ± 2.1e-05 |
| C16G C50U A53C C68G | 0.000113 ± 4.6e-05 |
| G29C G51U C67G | 5.96e-05 ± 2.8e-05 |
| U30C G44U U45G U69G | < 1e-05 |
| U30G U31A G35A A39G G51C G59A | < 1e-05 |
| C16G G40U U69G | < 1e-05 |
| G29C U31A | 0.000502 ± 0.0001 |
| G29U A64G C67G | 6.02e-05 ± 1.3e-05 |
| G32U C50U | < 1e-05 |
| G35A A52U A53G C70U | < 1e-05 |
| A15G A36U G43C | < 1e-05 |
| G32U C34U A42G U46C A64C | < 1e-05 |
| G26U G32C G35U G38U G63C | < 1e-05 |
| G35C A42U U55A C58G | < 1e-05 |

| Variant | self-cleavage kobs at 2500 uM GlcN6P [s⁻¹] |
| --- | --- |
| C16G G40U G41U | < 1e-05 |
| C16A G37U G41A | < 1e-05 |
| C34U C50U | < 1e-05 |
| G26U C58U | 6.46e-05 ± 1.7e-05 |
| U30G U49G U54A | 4.83e-05 ± 2.3e-05 |
| C16U A36U A39U A52U | < 1e-05 |
| A15U A33C A39G C71G | < 1e-05 |
| A15C A64C C68U | < 1e-05 |
| G32U A33U G41U | < 1e-05 |
| U30G G38A U46G | < 1e-05 |
| A15U A48G G51U | < 1e-05 |
| G32A U47A C70G | 4.84e-05 ± 2.3e-05 |
| A33G A52G G63A | < 1e-05 |
| U30A C50A C68U | 4.96e-05 ± 2.3e-05 |
| U30G G41C C58U | < 1e-05 |
| G32A G35C G44C U56G | < 1e-05 |
| G29U G32C A53G C70U | 6e-05 ± 1.4e-05 |
| A33C C34A G62U C71U | < 1e-05 |
| G32C G35C U56C | < 1e-05 |
| G32U G37C G43U | < 1e-05 |
| C16U U57A G59C | < 1e-05 |
| A15C G32A U69A | 0.000103 ± 3.2e-05 |
| A15U G44A G51A A53U | < 1e-05 |
| A15C G66U U69C | 4.52e-05 ± 1.5e-05 |

| Variant | self-cleavage kobs at 2500 uM GlcN6P [s⁻¹] |
| --- | --- |
| U30C G35C U49A | < 1e-05 |
| G32A A39U U56A | 5.98e-05 ± 1.5e-05 |
| G29C A64G G66U | 4.43e-05 ± 1.8e-05 |
| G29A U31G U54G | 6.58e-05 ± 3.2e-05 |
| A15C U30A U31C A48U | 7.36e-05 ± 3e-05 |
| G29U U31A U69G C70A | 8.63e-05 ± 2.8e-05 |
| U31A C34A C71U | < 1e-05 |
| C16G A36U G60A | < 1e-05 |
| C34A G59A C70A | < 1e-05 |
| G29C C61G G62A C70G | 0.000307 ± 0.00012 |
| C19A A53C C71A | 0.000384 ± 0.00012 |
| C34U G35A G44C U54A U65G | < 1e-05 |
| A15U C16U U49A C70G | 4.48e-05 ± 1.7e-05 |
| A15G U55G C71U | 0.00368 ± 0.0014 |
| U31G U56A G66U | 7.04e-05 ± 1.3e-05 |
| U30G U46G C58U | < 1e-05 |
| G29U G44U G59U C67A | < 1e-05 |
| G32U A48U C67U | < 1e-05 |
| U31C G41C U45A A52G C61G | < 1e-05 |
| C34A G37U A39U U57C C67A | < 1e-05 |
| C16U A36U G38C G60C | < 1e-05 |
| G32U A48U G51C | < 1e-05 |
| A15G A39U G41A | 0.000369 ± 0.0001 |
| G29U G44A U46C U65C | < 1e-05 |

| Variant | self-cleavage kobs at 2500 uM GlcN6P [s⁻¹] |
| --- | --- |
| G32C U54C G63U | < 1e-05 |
| G32A G40A U69G | < 1e-05 |
| A33G A52G G62A | < 1e-05 |
| U31C A42U U56C G66C | < 1e-05 |
| U31C G35A C71U | < 1e-05 |
| G32C U65G C68G | < 1e-05 |
| A33C G37C U55C | < 1e-05 |
| G32C C58U U65G | < 1e-05 |
| C16A G32A G37U | < 1e-05 |
| U31C G38A U47G G51C | < 1e-05 |
| C16U A39U G44U C67A | 0.0154 ± 0.0045 |
| C16A G37U C61G U69G | 5.77e-05 ± 1.7e-05 |
| C34U G35A | < 1e-05 |
| G29U U46A U56A G62U C68U | < 1e-05 |
| C16G U30G A39U | 4.31e-05 ± 2e-05 |
| A33G A42U C70U | < 1e-05 |
| A15U A48C G59A G60U | < 1e-05 |
| C16G U30C C34G U55C C61U C67U | < 1e-05 |
| C34U G51U A64C | < 1e-05 |
| U31G A48U A52C | < 1e-05 |
| G35C U46G U56A | < 1e-05 |
| C16U C50G U55C | 7.17e-05 ± 2.1e-05 |
| A15G A48C C50U | < 1e-05 |
| A33C G51A A53U | < 1e-05 |

| Variant | self-cleavage kobs at 2500 uM GlcN6P [s⁻¹] |
| --- | --- |
| A15C C16G U31A A53G C58A | 4.06e-05 ± 1.5e-05 |
| G29U G37A G38C G60U | < 1e-05 |
| A15G G44A U65A | 8e-05 ± 2e-05 |
| A15G G44U A64U U65G | < 1e-05 |
| U30C U47A C70A | 8.14e-05 ± 3.8e-05 |
| A15U A39C U45A | 0.000454 ± 0.00014 |
| C16A A39C A42U G51C C61G | < 1e-05 |
| U30G G35A G43C | < 1e-05 |
| A33U G37C C70G | < 1e-05 |
| G32A U57C | 5.22e-05 ± 1.9e-05 |
| A15U C50U U54C G59C | < 1e-05 |
| C34U A39C G59A | < 1e-05 |
| C16U A52G A53G C61U | < 1e-05 |
| C16U U47A C58G | 2.28e-05 ± 1.1e-05 |
| U31G G44C G59C | < 1e-05 |
| C16G G43U G62A | < 1e-05 |
| U31G C68U C71U | 7.95e-05 ± 3.1e-05 |
| G32C G37U C70G | 9.68e-05 ± 4.2e-05 |
| A33G U46G C68U C71G | 0.000183 ± 5.3e-05 |
| A33C C50U U56C | < 1e-05 |
| C34U G60A C68U | < 1e-05 |
| U30G G63C A64U | < 1e-05 |
| C16U A39U U46C A64G C71G | 9.88e-05 ± 3.4e-05 |
| A24C G29U A64G | 0.000837 ± 0.00014 |

| Variant | self-cleavage kobs at 2500 uM GlcN6P [s⁻¹] |
| --- | --- |
| C34G U57G C70G | 0.00021 ± 4.8e-05 |
| G29C G63C | < 1e-05 |
| U30C C61U U65A | < 1e-05 |
| A33C G51A U54C | < 1e-05 |
| U31C G37A G59A C61U G66A | < 1e-05 |
| G32C A36C G51C A53C G66A | < 1e-05 |
| C16G A39C C61U G63C | < 1e-05 |
| G32C A33C U49G | < 1e-05 |
| C16G G43A A48U | < 1e-05 |
| U31G U54A C68U | 0.000161 ± 5.7e-05 |
| G32C A36C A39U U69G | < 1e-05 |
| G29U C50U C61U | < 1e-05 |
| U30G A42G U65G C67U | 0.000104 ± 3.7e-05 |
| U30A U49C G66C | < 1e-05 |
| U30A G40C A53G U56C | < 1e-05 |
| A15G G44U C50U A64U | < 1e-05 |
| U30G U31C U47C G66A | 2.71e-05 ± 1.2e-05 |
| G29U A36G A42G G43C G62U U65C U69C | < 1e-05 |
| U30C U55A U69G | 7.73e-05 ± 1.4e-05 |
| U31G A36U C50A C71G | 0.000265 ± 0.00012 |

Variants of: B1
Assay: self-cleavage kobs at 10000 uM GlcN6P; higher = faster cleavage; RNA array
Details: with glucosamine-6-phosphate
How it was run: as §1

| Variant | self-cleavage kobs at 10000 uM GlcN6P [s⁻¹] |
| --- | --- |
| A15U G32A A39U C71U | 0.000208 ± 6.3e-05 |
| U30A A33U C34A A36C G37C U57G | < 1e-05 |
| G29C U31A | 0.000731 ± 0.00017 |
| G32U C50U | < 1e-05 |
| G26U C58U | 7.64e-05 ± 1.4e-05 |
| G32A G40A U69G | < 1e-05 |
| C34U G35A | < 1e-05 |
| C16G U30G A39U | 0.000103 ± 2.8e-05 |
| U30G G63C A64U | < 1e-05 |
| U31C G37A G59A C61U G66A | < 1e-05 |
| G32C A36C A39U U69G | < 1e-05 |
